These results are taken from patent publication US20250326842A1 (BEIGENE SWITZERLAND, published 2025).

Assay [1] has as its target T1, hPVRIG-ECD-his (human, UniProt Q6DKI7 41-171).
T1 construct: Acrobiosystems PVG-H52H4; also called hPVRIG-His; human PVRIG-His; not shown: His tag
T1 sequence: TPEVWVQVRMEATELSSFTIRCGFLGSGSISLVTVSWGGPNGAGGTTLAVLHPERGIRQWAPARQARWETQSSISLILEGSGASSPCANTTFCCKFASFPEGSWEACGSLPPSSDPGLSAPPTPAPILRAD
The assay can be described thus: SPR (Biacore), BGA384 captured via anti-human Fc, human PVRIG-His analyte. The procedure: SPR koff and kₒₙ were calculated using the one-to-one Langmuir binding model (BIA Evaluation Software, GE Life Sciences); KD was calculated as the ratio of koff/kₒₙ.
For orientation: Surface plasmon resonance follows binding to a sensor surface in real time, without labels.

Assay [2] deals with T2, human PVRIG recombinant protein (human, UniProt Q6DKI7 41-171).
T2 construct: also called human PVRIG protein; recombinant human antigen PVRIG
T2 sequence: T1 sequence
The assay can be described thus: competition ELISA, BGA384 against biotinylated human PVRL2 (Fc-Avi-tag) on coated human PVRIG. On the technique in general: In an ELISA, binding on a coated surface is turned into a signal by an enzyme label.

In assay [3] the target is T3, human PVRIG expressed on cells (human, UniProt Q6DKI7 41-326).
T3 sequence: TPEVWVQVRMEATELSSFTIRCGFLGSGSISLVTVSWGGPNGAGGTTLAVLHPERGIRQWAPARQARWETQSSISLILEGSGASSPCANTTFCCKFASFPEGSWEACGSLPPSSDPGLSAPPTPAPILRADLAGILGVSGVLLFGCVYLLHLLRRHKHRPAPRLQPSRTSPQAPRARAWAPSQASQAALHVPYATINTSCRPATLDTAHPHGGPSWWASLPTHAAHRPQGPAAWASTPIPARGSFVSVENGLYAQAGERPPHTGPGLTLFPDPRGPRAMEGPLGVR
The assay can be described thus: cell-based or functional assay.

The target of assay [4] is FcγRI (human, UniProt P12314 16-288, limits assumed). The assay can be described thus: Biacore, KD from kinetic constants (koff/kon). The procedure: K¹ (M) values were calculated from the ratio of the kinetic constants as KD=koff/kₒₙ. K2 (M) values were determined by the analyte concentration at which half of the ligands are occupied at equilibrium.
FcγRI, sequence (P12314 16-288 limits assumed): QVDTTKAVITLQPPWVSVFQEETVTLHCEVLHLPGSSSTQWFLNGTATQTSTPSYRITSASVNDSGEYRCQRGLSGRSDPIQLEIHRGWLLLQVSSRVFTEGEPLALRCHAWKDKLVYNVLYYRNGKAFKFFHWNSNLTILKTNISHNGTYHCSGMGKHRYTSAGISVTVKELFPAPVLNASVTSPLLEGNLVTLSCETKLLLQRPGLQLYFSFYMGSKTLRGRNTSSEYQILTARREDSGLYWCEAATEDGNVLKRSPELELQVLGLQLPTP
Assay [5] deals with T4, Cyno PVRIG expressed on HEK293 cells (cynomolgus monkey).
T4 construct: also called native Cyno PVRIG
T4 chain: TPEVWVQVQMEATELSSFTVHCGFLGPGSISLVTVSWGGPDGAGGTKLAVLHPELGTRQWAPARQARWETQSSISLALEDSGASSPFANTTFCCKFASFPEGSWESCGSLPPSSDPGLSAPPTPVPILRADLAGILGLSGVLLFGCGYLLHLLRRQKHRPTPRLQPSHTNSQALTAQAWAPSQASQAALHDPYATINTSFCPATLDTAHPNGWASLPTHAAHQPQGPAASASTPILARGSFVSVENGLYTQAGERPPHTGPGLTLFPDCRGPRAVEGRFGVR
The assay can be described thus: flow cytometry on HEK293 cells expressing cyno PVRIG, anti-hFc-647 detection [panel B]. The procedure: To evaluate the binding activity of anti-PVRIG antibodies to native Cyno PVRIG on living cells. HEK293 cells were engineered to express Cyno PVRIG. HEK293 cells transfected with Cyno PVRIG were seeded in 96 well plates and were incubated with a serial dilution of anti-PVRIG antibodies. […] EC50 values for dose dependent binding to Cyno native PVRIG were determined by fitting the dose response data to the four-parameter logistic model with GraphPad Prism™.
For orientation: A flow cytometer gives signals particle by particle.

B1: BGA384 (antibody, human IgG1, kappa)
heavy: not shown
light: QIVLTQSPATLSLSPGERATLSCSAGSSVNYMHWFQQKPGQAPRLLIYSTSNLASGVPARFSGSGSGTDYTLTISSLEPEDFAVYYCQQRSSLPFTFGQGTKLEIKRTVAAPSVFIFPPSDEQLKSGTASVVCLLNNFYPREAKVQWKVDNALQSGNSQESVTEQDSKDSTYSLSSTLTLSKADYEKHKVYACEVTHQGLSSPVTKSFNRGEC
notes: also called BGB-A538; BGA384 WT
Take B1: in assay [1], the Kd worked out at 0.0826 nM, the koff was 0.000344 s⁻¹ and the kon came out at 4.16e+06 M⁻¹ s⁻¹. For the same molecule, the IC50 in assay [2] was found to be 0.383 µg/mL. The “EC50 of promoter-driven luminescence, JK-NFAT-HuPVRIG with A549/OS8-H cells” value in assay [3] turned out to be 0.0377 µg/mL. This molecule also returned a Kd in assay [4] of 3.26 nM. In addition, the “EC50 (read off the curve)” value in assay [5] is around 0.05 µg/mL.

A word on the Kd: it is the constant that tells how readily two partners part at equilibrium. The term koff denotes the rate constant with which the complex falls apart. Read a low koff as a long-lived complex. The term kon denotes the rate constant with which the complex forms. Higher therefore signals faster complex formation. By IC50 is commonly meant the concentration at which inhibition is half-maximal. In general, EC50 (read off the curve) refers to the concentration at which the effect is half-maximal. Higher therefore signals lower potency in that assay.
